Source: the nanobody polyreactivity screen of Harvey et al. (2022)

Assay: yeast display, Sf9 membrane polyspecificity reagent, FACS + sequencing; frameworks hold sequencing errors
Summary of the method: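 Nanobodies came from a synthetic yeast display library in Saccharomyces cerevisiae BJ5465, induced with galactose for 36–48 hours and stained for 1 hour at 4 °C with 10% biotinylated, detergent-solubilized Sf9 membrane reagent. Cells were enriched on streptavidin microbeads and then FACS-sorted, with low and high (top ~1%) gates set on anti-HA fluorescence for expression and streptavidin fluorescence for reagent binding. Each polyreactivity label reflects the gate a clone came from. Genes were amplified by colony PCR, sequenced by MiSeq 2 × 250 and filtered by CDR length.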

Row | Sequence | polyreactivity (PSR sort gate)
1 | QVQLVESGGGLVQAGGSLRLSCAASGSTFARYVMGWYRQAPGKERELVAAIRSTGGRTYYADSVKGRFTISRDNAKNNVYVQMNSLKPEDTAVYYCAAAFGQYSRKRFDYWGQGTQVTVSS | high polyreactivity
2 | QVQLVESGGGLVQAGGSLRLSCAASGSTFASNAMGWYRQAPGKDRELVADLSSGGSTYADSVKGRFTISRDNAKNTVYLQMNSLKPVDTAVYYCNNRSYGFLRGPRKTIKYYRYGYWGQGTQVTVSS | high polyreactivity
3 | QVQLVESGGGLVQAGGSLRLSCAASGSTFASNAMGWYRQAPGKERELVAAITSRDASTYYADSVKGRFTISRDKEKNTVYLQMNSLKPEDTAVYYCAPVGYSPAAFDYWGQGTQVTVSS | low polyreactivity
4 | QVQLVESGGGLVQAGGSLRLSCAASGSTFASNPMGGYRQAPGKERELVAAISGSGGSTYYADSVKGRFTISRDNAKNTVYLQMNSMTPEDTAVYYCNAAVAYYSYSYYTKVGVDYWGQGSQVTVSS | high polyreactivity
5 | QVQLVESGGGLVQAGGSLRLSCAASGSTFASYAMGSYRQATGKETELVASITRRGGSTDYADSVKGRFTISRDNAKTTVYLQMNSLKPEDTSVYYAVETAWSYNSNYWFDYWGQGTQVTVSS | high polyreactivity
6 | QVQLVESGGGLVQAGGSLRLSCAASGSTFASYAMGWDRQAPGKERELVAAITDSGGSTYYADSVKGRFTISRDNAKNTVYLQMNSLKPEDTAVYYCAAYGPYFSYHDYDYWGQGTQVTVSS | low polyreactivity
7 | QVQLVESGGGLVQAGGSLRLSCAASGSTFASYAMGWNRQAPGKEREFVAAISRSGGSTYYADSVKWRFTISRDNAKNTVYLQMNSLKPEDTAVYYCAARSPSADEYYFWGQGTQVTVSS | low polyreactivity
8 | QVQLVESGGGLVQAGGSLRLSCAASGSTFASYAMGWYRQAPGKERELVAAIRWRGGTTYYADSVKGRFTISRDNAKNTVYLQMNSLKPEDTAVYYCNADRYYLYYYWGQGTQVTVSS | low polyreactivity
9 | QVQLVESGGGLVQAGGSLRLSCAASGSTFASYAMGWYRQAPGKERELVAAITNGGSTNYADSVKGRFTISRDNAKNTVYLQMNSLKPEDTAVYYCAAYDGFPRRYDYWGQGTQVTVSS | low polyreactivity
10 | QVQLVESGGGLVQAGGSLRLSCAASGSTFAVNVMGWYRQAPGKERELVATITYRDGRTYYADSVKGRFTISRDNAKNTVYLQMNSLNPEDTAVYYCAADDEYKQEAEMDSWGQGTQVTVSS | low polyreactivity
11 | QVQLVESGGGLVQAGGSLRLSCAASGSTFAVYAMGWYRQAPGKERELVAVISRGANTNYADSVKGRFTISRDNAKNTVYLQMNSLKPEDTAVYYCAAPSYFTHRGRFDYWGQGTQVTVSS | low polyreactivity
12 | QVQLVESGGGLVQAGGSLRLSCAASGSTFAVYAMGWYRQEPGKERELVAVISRGANTNYADSVKGRFTISRDNAKNTVYLQMNSLIPEDTAVYYCAAPSFFTHRGRFDYWGQGTQVTVSS | low polyreactivity
13 | QVQLVESGGGLVQAGGSLRLSCAASGSTFAWNAMGWYRQAPGKERELVAAISWSGVRTYYADSVKGRFTISRDNAKNTVYLQMNSLKPEDTAVYYCAAPVYWAYTRSMDYWGQGTQVTVSS | high polyreactivity
14 | QVQLVESGGGLVQAGGSLRLSCAASGSTFAWYAMGWYRQAPGKERELVASIRWGGGSTYYADSVKGRFTISRDNAKNTVFLQMHSLKPEDTAVYYCAAYFGYTVGRYNYWGQGTQVTVSS | high polyreactivity
15 | QVQLVESGGGLVQAGGSLRLSCAASGSTFAWYAMGWYRQAPGKERELVAVITSTGRTYYADSVKGRFTISRDNAKNTVYLQMNSLKPEDSAVYYCAAQYGGGYLKPYRREYWGQGTQVTVSS | high polyreactivity
16 | QVQLVESGGGLVQAGGSLRLSCAASGSTFAWYAMGWYRQATGKETELVAVITRRGGSTYYADSVKGRFTISRDNAKNTVYLQMNSLKPEDTAVYYCAAEYQVSHWYRTASVYDYDSWGQGTQVTVSS | high polyreactivity
17 | QVQLVESGGGLVQAGGSLRLSCAASGSTFAWYTMGWYRQAPGKERELVARISGSVGSTYYADSVKGRFTISRDNAKNTVYLQMNSLKPEDTAVYYCAAVYDEDQYDYWGQGTQVTVSS | low polyreactivity
